Measurements: the Human Domainome abundance scans (Beltran et al. 2025)
± gives the uncertainty stated by the source.

B1: Gamma-crystallin C, residues 4 to 79; numbered along this chain, P07315 (parent)
chain: ITFYEDRAFQGRSYETTTDCPNLQPYFSRCNSIRVESGCWMLYERPNYQGQQYLLRRGEYPDYQQWMGLSDSIRSC

Variants of: B1
Assay: abundance fitness (aPCA) (normalised: wild type 0, dead -1); higher = more abundant; growth selection in yeast, the domain comes from the species named
Settings: Homo sapiens

| Variant | abundance fitness |
| --- | --- |
| ITFYEDREFQGRSYETTTDCPNLQPYFSRCNSIRVESGCWMLYERPNYQGQQYLLRRGEYPDYQQWMGLSDSIRSC [A8E] | 0.103 ± 0.11 |
| ITFYEDRHFQGRSYETTTDCPNLQPYFSRCNSIRVESGCWMLYERPNYQGQQYLLRRGEYPDYQQWMGLSDSIRSC [A8H] | 0.016 ± 0.2 |
| ITFYEDRWFQGRSYETTTDCPNLQPYFSRCNSIRVESGCWMLYERPNYQGQQYLLRRGEYPDYQQWMGLSDSIRSC [A8W] | -0.069 ± 0.051 |
| ITFYEDRNFQGRSYETTTDCPNLQPYFSRCNSIRVESGCWMLYERPNYQGQQYLLRRGEYPDYQQWMGLSDSIRSC [A8N] | 0.181 ± 0.34 |
| ITFYEDRYFQGRSYETTTDCPNLQPYFSRCNSIRVESGCWMLYERPNYQGQQYLLRRGEYPDYQQWMGLSDSIRSC [A8Y] | -0.101 ± 0.42 |
| ITFYEDRQFQGRSYETTTDCPNLQPYFSRCNSIRVESGCWMLYERPNYQGQQYLLRRGEYPDYQQWMGLSDSIRSC [A8Q] | 0.007 ± 0.11 |
| ITFYEDRRFQGRSYETTTDCPNLQPYFSRCNSIRVESGCWMLYERPNYQGQQYLLRRGEYPDYQQWMGLSDSIRSC [A8R] | -0.005 ± 0.061 |
| ITFYEDRCFQGRSYETTTDCPNLQPYFSRCNSIRVESGCWMLYERPNYQGQQYLLRRGEYPDYQQWMGLSDSIRSC [A8C] | 0.072 ± 0.092 |
| ITFYEDRPFQGRSYETTTDCPNLQPYFSRCNSIRVESGCWMLYERPNYQGQQYLLRRGEYPDYQQWMGLSDSIRSC [A8P] | -0.312 ± 0.16 |
| ITFYEDRDFQGRSYETTTDCPNLQPYFSRCNSIRVESGCWMLYERPNYQGQQYLLRRGEYPDYQQWMGLSDSIRSC [A8D] | -0.275 ± 0.24 |
| ITFYEDRTFQGRSYETTTDCPNLQPYFSRCNSIRVESGCWMLYERPNYQGQQYLLRRGEYPDYQQWMGLSDSIRSC [A8T] | -0.016 ± 0.14 |
| ITFYEDRVFQGRSYETTTDCPNLQPYFSRCNSIRVESGCWMLYERPNYQGQQYLLRRGEYPDYQQWMGLSDSIRSC [A8V] | -0.064 ± 0.069 |
| ITFYEDRIFQGRSYETTTDCPNLQPYFSRCNSIRVESGCWMLYERPNYQGQQYLLRRGEYPDYQQWMGLSDSIRSC [A8I] | 0.001 ± 0.18 |
| ITFYEDRFFQGRSYETTTDCPNLQPYFSRCNSIRVESGCWMLYERPNYQGQQYLLRRGEYPDYQQWMGLSDSIRSC [A8F] | -0.06 ± 0.13 |
| ITFYEDRMFQGRSYETTTDCPNLQPYFSRCNSIRVESGCWMLYERPNYQGQQYLLRRGEYPDYQQWMGLSDSIRSC [A8M] | 0.013 ± 0.12 |
| ITFYEDRSFQGRSYETTTDCPNLQPYFSRCNSIRVESGCWMLYERPNYQGQQYLLRRGEYPDYQQWMGLSDSIRSC [A8S] | -0.016 ± 0.14 |
| ITFYEDRGFQGRSYETTTDCPNLQPYFSRCNSIRVESGCWMLYERPNYQGQQYLLRRGEYPDYQQWMGLSDSIRSC [A8G] | 0.053 ± 0.1 |
| ITFYERRAFQGRSYETTTDCPNLQPYFSRCNSIRVESGCWMLYERPNYQGQQYLLRRGEYPDYQQWMGLSDSIRSC [D6R] | 0.003 ± 0.059 |

| Variant | abundance fitness |
| --- | --- |
| ITFYEKRAFQGRSYETTTDCPNLQPYFSRCNSIRVESGCWMLYERPNYQGQQYLLRRGEYPDYQQWMGLSDSIRSC [D6K] | 0.086 ± 0.23 |
| ITFYEPRAFQGRSYETTTDCPNLQPYFSRCNSIRVESGCWMLYERPNYQGQQYLLRRGEYPDYQQWMGLSDSIRSC [D6P] | -0.819 ± 0.45 |
| ITFYESRAFQGRSYETTTDCPNLQPYFSRCNSIRVESGCWMLYERPNYQGQQYLLRRGEYPDYQQWMGLSDSIRSC [D6S] | -0.065 ± 0.097 |
| ITFYEMRAFQGRSYETTTDCPNLQPYFSRCNSIRVESGCWMLYERPNYQGQQYLLRRGEYPDYQQWMGLSDSIRSC [D6M] | 0.159 ± 0.25 |
| ITFYENRAFQGRSYETTTDCPNLQPYFSRCNSIRVESGCWMLYERPNYQGQQYLLRRGEYPDYQQWMGLSDSIRSC [D6N] | -0.035 ± 0.21 |
| ITFYEGRAFQGRSYETTTDCPNLQPYFSRCNSIRVESGCWMLYERPNYQGQQYLLRRGEYPDYQQWMGLSDSIRSC [D6G] | -0.009 ± 0.055 |
| ITFYEYRAFQGRSYETTTDCPNLQPYFSRCNSIRVESGCWMLYERPNYQGQQYLLRRGEYPDYQQWMGLSDSIRSC [D6Y] | 0.032 ± 0.23 |
| ITFYEHRAFQGRSYETTTDCPNLQPYFSRCNSIRVESGCWMLYERPNYQGQQYLLRRGEYPDYQQWMGLSDSIRSC [D6H] | 0.115 ± 0.23 |
| ITFYEERAFQGRSYETTTDCPNLQPYFSRCNSIRVESGCWMLYERPNYQGQQYLLRRGEYPDYQQWMGLSDSIRSC [D6E] | -0.038 ± 0.12 |
| ITFYETRAFQGRSYETTTDCPNLQPYFSRCNSIRVESGCWMLYERPNYQGQQYLLRRGEYPDYQQWMGLSDSIRSC [D6T] | 0.057 ± 0.13 |
| ITFYEFRAFQGRSYETTTDCPNLQPYFSRCNSIRVESGCWMLYERPNYQGQQYLLRRGEYPDYQQWMGLSDSIRSC [D6F] | -0.204 ± 0.14 |
| ITFYELRAFQGRSYETTTDCPNLQPYFSRCNSIRVESGCWMLYERPNYQGQQYLLRRGEYPDYQQWMGLSDSIRSC [D6L] | 0.032 ± 0.083 |
| ITFYEWRAFQGRSYETTTDCPNLQPYFSRCNSIRVESGCWMLYERPNYQGQQYLLRRGEYPDYQQWMGLSDSIRSC [D6W] | -0.208 ± 0.072 |
| ITFYEQRAFQGRSYETTTDCPNLQPYFSRCNSIRVESGCWMLYERPNYQGQQYLLRRGEYPDYQQWMGLSDSIRSC [D6Q] | 0.086 ± 0.22 |
| ITFYEVRAFQGRSYETTTDCPNLQPYFSRCNSIRVESGCWMLYERPNYQGQQYLLRRGEYPDYQQWMGLSDSIRSC [D6V] | -0.164 ± 0.14 |
| ITFYEDRAFCGRSYETTTDCPNLQPYFSRCNSIRVESGCWMLYERPNYQGQQYLLRRGEYPDYQQWMGLSDSIRSC [Q10C] | 0.053 ± 0.075 |
| ITFYEDRAFAGRSYETTTDCPNLQPYFSRCNSIRVESGCWMLYERPNYQGQQYLLRRGEYPDYQQWMGLSDSIRSC [Q10A] | 0.065 ± 0.076 |
| ITFYEDRAFPGRSYETTTDCPNLQPYFSRCNSIRVESGCWMLYERPNYQGQQYLLRRGEYPDYQQWMGLSDSIRSC [Q10P] | -1.2 ± 0.42 |
